This is an account of results in paper PMC7105497.

The target in the test is human EWI-2 wild type with FLAG-tag (FSEC assay) (human) (UniProt Q969P0). The experiment in a line: SEC; fluorescence-detection size-exclusion chromatography (FSEC): GFP-tagged CD9 and FLAG-tagged EWI-2 co-expressed in HEK293T cells, solubilised in 1% digitonin, supernatant run on Superose 6 Increase in 10 mM HEPES pH 7.0, 150 mM NaCl, 0.1% digitonin; GFP fluorescence monitored.
Chain of UniProt Q969P0 (Q969P0 28-613): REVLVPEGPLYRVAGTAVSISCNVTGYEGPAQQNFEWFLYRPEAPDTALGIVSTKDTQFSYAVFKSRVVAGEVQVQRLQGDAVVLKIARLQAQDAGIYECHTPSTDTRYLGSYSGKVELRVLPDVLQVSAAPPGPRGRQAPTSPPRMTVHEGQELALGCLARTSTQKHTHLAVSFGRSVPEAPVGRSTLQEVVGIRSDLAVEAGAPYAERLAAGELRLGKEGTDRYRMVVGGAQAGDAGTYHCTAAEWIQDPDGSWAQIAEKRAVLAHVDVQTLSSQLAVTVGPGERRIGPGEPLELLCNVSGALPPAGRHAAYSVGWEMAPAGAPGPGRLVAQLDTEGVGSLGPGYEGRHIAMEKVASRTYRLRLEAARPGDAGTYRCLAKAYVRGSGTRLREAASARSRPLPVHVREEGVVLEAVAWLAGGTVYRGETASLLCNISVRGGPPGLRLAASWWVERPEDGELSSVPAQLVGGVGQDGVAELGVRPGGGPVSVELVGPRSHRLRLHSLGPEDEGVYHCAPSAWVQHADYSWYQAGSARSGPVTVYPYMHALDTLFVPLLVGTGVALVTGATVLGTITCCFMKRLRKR

Substance “CD9-CD53LEL (CD9 with its LEL region exchanged with that of CD53)” came in with a stoichiometry N (EWI-2 per CD9) of 2.
